Laboratory results as given in the nanobody polyreactivity screen of Harvey et al. (2022).

Experiment: yeast display, Sf9 membrane polyspecificity reagent, FACS + sequencing; frameworks hold sequencing errors
Method in brief: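 After 36–48 hours of galactose induction, yeast (Saccharomyces cerevisiae BJ5465) displaying a synthetic nanobody library were stained at 4 °C for 1 hour with 10% biotinylated, detergent-solubilized Sf9 membrane reagent. Streptavidin microbeads enriched the stained cells before FACS sorting into low and high (top ~1%) gates on anti-HA and streptavidin fluorescence. Each clone's polyreactivity label reflects its gate of origin.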

Row | Sequence | polyreactivity (PSR sort gate)
1 | QVQLVESGGGLVQAGGSLRLSCAASGYIFSDNTMGWYRQAPGKERELVAVITSGTSTSYADSVKGRFTISRDNAKNTVYLQMNSLKPEDTAVYYAARTGQYKTYGEYDYWGQGTQVTVSS | low polyreactivity
2 | QVQLVESGGGLVQAGGSLRLSCAASGYIFSYNAMGWYRQAPGKERELVAAMTASGGGTYYADSVKGRFTISRDNAKNTVYLQMNSLKPEDTAVYYCAADFNDHYYWYGQDYDYWGQGTQVTVSS | low polyreactivity
3 | QVQLVESGGGLVQAGGSLRLSCAASGYIFSYYAMGWYRQAPGKERELVAAINRSGGRTYYADSVKGRFTISRDNAKNTVYLQMNSLKPEDTAVYYCAADQLSDEYDYWGQGTQVTVSS | high polyreactivity
4 | QVQLVESGGGLVQAGGSLRLSCAASGYIFSYYTMGLYRQAPGKERELVASNRWGGGRTYYADSVKGRFTISRDNAKNTVYLQMNSLKPEDTAVYYCNVKSSRLLDVGRMEYWGQGTQVTVSS | high polyreactivity
5 | QVQLVESGGGLVQAGGSLRLSCAASGYIFSYYTMGWYRQAPGKERELVAAISYSGGSTDYADSVKGRFTISRDNAKNTVYLQMNSLKPEDTAVYYCNADYSFWAKPYWEYGYDYWGQGTQVTVSS | low polyreactivity
6 | QVQLVESGGGLVQAGGSLRLSCAASGYIFVIYAMGWYRQAPGKERELVAAISWGGGSTYYADSVKGRFTISRDNAKNTVYLQMNSLKPEATAVYYCAARGWVVGRISVPGEYWGQGTQVTVSS | high polyreactivity
7 | QVQLVESGGGLVQAGGSLRLSCAASGYIFVPYALGWYRQAPGKERELVASITGGGSTNYADSVKGRFTISRDNAKNTVYLQMNSLKPEDTAVYYCAAVLGGGEKGGRNRRFDSWGQGTQVTVSS | low polyreactivity
8 | QVQLVESGGGLVQAGGSLRLSCAASGYIFVSYDMGWYRQAPGKERELVAAISWRGGSTYYADSVKGRFTISRDNAMNTVYLQMNSLKPEDTAVYYCAVDDWLDWLFADFGYWGQGTQVTVSS | low polyreactivity
9 | QVQLVESGGGLVQAGGSLRLSCAASGYIFVYNSMGWYRPAPGKERELVAVINYSGSSTYYADSVKGRFPISRDNAKNTVYLQMNSLKPEDTAVYYCNALRRESLEDEYWGQGTQVTVSS | high polyreactivity
10 | QVQLVESGGGLVQAGGSLRLSCAASGYIFWENAMGWYRQAPGKERELVAAITVSGGGTYYADSVKGRFTISRDNAKNTVYLQMNSLKPEDTAVYYCAADEDNPWLWFYYWGQGTQVTVSS | low polyreactivity
11 | QVQLVESGGGLVQAGGSLRLSCAASGYIFWSNTMGWYRQAPGKERELVAAISQSTASTYYADSVKGRFTISRDNAKNTVYLQMNSLKPEDTAVYYCAADDYIDGDDYWGQGTQVTVSS | low polyreactivity
12 | QVQLVESGGGLVQAGGSLRLSCAASGYIFYAYAMAWYRHAPGKESELVAAITDNGVSTFYADSVKGRFTISRDNAKNTVYLHMNSLIPEDTAVYYCATSSTHSRGDEYWGQGTQVAVSS | low polyreactivity
13 | QVQLVESGGGLVQAGGSLRLSCAASGYIFYDNAMGWYRQAPGKERELVAAISRSGSRTRYADSVKGRFTISRDNAKNTVYLQMNSLKPEDTAVYYCNTRYAKYYYWGQGTQVTVSS | high polyreactivity
14 | QVQLVESGGGLVQAGGSLRLSCAASGYIFYFNAMGRYRQAPGKERELVAVISDRDDSTYYADSVKGRFTISRDNAKNTVYLQMNSLKPEDTAVYYCAADGDTYVDDPYDYWGQGTQVTVSS | low polyreactivity
15 | QVQLVESGGGLVQAGGSLRLSCAASGYIFYFYAMGWYRQAPGKERELVAAISSSGGSTRYADSVKGRFTISRDNAKNTVYLQMNSLKPEDTAVYYCAASHWSGAAWYYYWGQGTQVTVSS | high polyreactivity
16 | QVQLVESGGGLVQAGGSLRLSCAASGYIFYGYAMGWYRQAPWKESEWVAAITVRGGSTYYADSVKGRFTISRDKAKNTVYLQKNSQKPEDTAVYYCAAAPQFTFGVGYWGQVTQVTVSS | low polyreactivity
17 | QVQLVESGGGLVQAGGSLRLSCAASGYIFYRNAMGWYRQAPGKEREFVAAISSSGVSTYYADSVKGRFTISRDTAKNTVYLQMNSLKPEDTAVYYCNTGYIFSSFYSSKYGYWGQGTQVTVSS | low polyreactivity
18 | QVQLVESGGGLVQAGGSLRLSCAASGYIFYTYAMGWYRQAPGKERELVASIDSGGSTNYADSVKGRFTISRDNAKNTVYLQMNSLKPEDTAVYYCAADVIVRVYYYYYVLMDYWGQGTQVTVSS | low polyreactivity
19 | QVQLVESGGGLVQAGGSLRLSCAASGYIIARNAMGWYRQAPGKERELVAAIRSSGGSTYYADSVKGRFTISRDNAKNTVYLQMNSLKPEDTAVYYCAARILKRPKLYDYWGQGTQVTVSS | high polyreactivity
20 | QVQLVESGGGLVQAGGSLRLSCAASGYIIRRYSMVWYIQAPGKESEWVAVISSRGGSTYYADSVKGRFTISRDYAKNTVYLQMNSLKPEDTPVYYCAARSGSRATVLSDYWGQGTQVTVSS | high polyreactivity
21 | QVQLVESGGGLVQAGGSLRLSCAASGYILDVYAMGWYRQAHGKEWELVAVITWRTDSTYYADSVKGRFTISRDNAKNTVYLQMNSLKPEDTAVYYCAKVLRLSKYRYYYWGQGTQVTVSS | high polyreactivity
22 | QVQLVESGGGLVQAGGSLRLSCAASGYILGRYAMGWYRQAPGKERELVAAITSGGSTYYADSVKGRFTISRDNAKNTVYLQMNSLKPEDTAVYYCNAFFATGVDYWGQGTQVTVSS | high polyreactivity

Row | Sequence | polyreactivity (PSR sort gate)
23 | QVQLVESGGGLVQAGGSLRLSCAASGYILQINAMGWYRQAPGKERELVSAISISGGNTYYADSVKGRFTISRDNAKNNVYLQMNSLKPEDTAVYYCAAYRYYSYLVRYGLLLAYYYWGQGTQVTVSS | low polyreactivity
24 | QVQLVESGGGLVQAGGSLRLSCAASGYILTHYAMGWYRQAPGKERELVAAITRVGNTNYADSVKGRFTISRDNAKNTVYLQMNSLKPEDTAVYYCAVTYNGDSSWPGDYWGQGTQVTVSS | low polyreactivity
25 | QVQLVESGGGLVQAGGSLRLSCAASGYISFGYAMGWYRQAPGKEREFVAAISVGGGTTYYADSVKGRFTISRDNAKNTVYLQMNSLKPEDTAVYYCAARSYSYAPRRGYWGQGTQVTVSS | high polyreactivity
26 | QVQLVESGGGLVQAGGSLRLSCAASGYMFGGYAMGWYRQAPGKAREFVAAISDISGSTYYADSVKGRFTISRDNAKNTVYLQMNSLKPEDTAVYYGGHTSTADEDYWGQGTQVTVSS | low polyreactivity
27 | QVQLVESGGGLVQAGGSLRLSCAASGYMGWYRQAPGKERELVATISGSGGSPYYADSVKGRFSISRDNAKNTVYLQMNSLKPEDTARYYCTTEIWGVNRSGYDYWGQGTQVTVSS | low polyreactivity
28 | QVQLVESGGGLVQAGGSLRLSCAASGYNFDGYAMGWYRQAPGKERELVAAINSGGGTYYADSVKGRFTISRDNAKNTVYLQMNSLKPEDTAVYYCSKYTYDYWGQGTQVTVSS | low polyreactivity
29 | QVQLVESGGGLVQAGGSLRLSCAASGYNFGVYAMGWYRQAPGKERELVAAINGGDSTYYADSVKGRFTISRDNAKNTVYLQMNSLKPEDTAVYYCAADPYSVYGGDYWGQGTQVTVSS | low polyreactivity
30 | QVQLVESGGGLVQAGGSLRLSCAASGYNFYVNGMGWYRQAAGTERELVARITLSGTSTYYADSVKGRITISRDYAKNTVYLQMNSLKPDDTAVYYCAAPYFTYGLDVDVYWGQGTQVTVSS | low polyreactivity
31 | QVQLVESGGGLVQAGGSLRLSCAASGYRFERNAMGWYIQAPGKERELVAAITDDGDDTYYADSVKGRFTISRDNAKNTVYLQINSLKPEDYAVYYWAKDLYYGDYYYWGQGTQVTVSS | low polyreactivity
32 | QVQLVESGGGLVQAGGSLRLSCAASGYTFARNAMGWYIQAPGKERELVAAISSSGGRTYYADSVKGRFTISRDNAKNTVYLQMNSLKPEDTAVYYCNTGYYRTGSYDYWGQGTQVTVSS | high polyreactivity
33 | QVQLVESGGGLVQAGGSLRLSCAASGYTFAYYTMGWYRQAPGKERELVAAINRSGGSTNYADSVKGRFTISRDNAKNTVYLQMNSLKPEDTAVYYCAADYFFRRGPGAVFIGRYGYWGQGTQVTVSS | high polyreactivity
34 | QVQLVESGGGLVQAGGSLRLSCAASGYTFDGYPRGWYRQAPGKERELVAVITKSGGRTYYADSVKGRFTNSRDNAKNTVYLQMNSLKPEDTAVYYCAADDSGTKDIVEGEYWGQGTQVTVSS | high polyreactivity
35 | QVQLVESGGGLVQAGGSLRLSCAASGYTFEDNAMGWYRQAPGKERELVAAIDWSGDSTYYADSVKGRFTISRDNAKNTVYLQMNSLKPEDTAVYYCSADYTTWTDMDYWGQGTQVTVSS | low polyreactivity
36 | QVQLVESGGGLVQAGGSLRLSCAASGYTFFTNAMGWYRQAPGKEREFVAAISKSGGNTYYADSVKGRFTISRDNAKNTVYLQMNSRKPEDTAVYYCAAQHRGYAGPRPYYYWGQGTQVTVSS | high polyreactivity
37 | QVQLVESGGGLVQAGGSLRLSCAASGYTFFTNVMGWYRKAPGKERELVATITAGGSTYADSVKGRFTISRDNAKNTFYLQMNSLKPEDTAVYYCAVDALTGAWLGGYPYWADGYDYWGQGTQVTVSS | low polyreactivity
38 | QVQLVESGGGLVQAGGSLRLSCAASGYTFFVYAMGWYRQAPGKERELVAAIDLNGGSTSYADSVKGRFTISRDNAKNTVYLQMNSLKPEDTAVYYCAAYSWVGYDYDYWGQGTQVTVSS | low polyreactivity
39 | QVQLVESGGGLVQAGGSLRLSCAASGYTFGFYTRGWYRQAPGKERELVAGISWSGGSTYYADSVKGRFTISRDNAKNTVYLQMNSLKPEDTAVYYCATRWRGRYDYWGQGTQVTVSS | high polyreactivity
40 | QVQLVESGGGLVQAGGSLRLSCAASGYTFGGNAMGWYRQAPGKERELVAAISSGGSTNYADSVKGRFTISRDNAKNTVYLQMNSLKPEDTAVYYCNKRGYYYWSGQDVASYDYWGQGTQVTVSS | low polyreactivity
41 | QVQLVESGGGLVQAGGSLRLSCAASGYTFGKNAMGWYRQAPGKERELVAAISRSGGSTFYADSVKGRFTISRDNAKHTVYLQMNSLKPEDTAVYYCAARSYVRFDYWGQGTQVTVSS | high polyreactivity
42 | QVQLVESGGGLVQAGGSLRLSCAASGYTFGQYAMGWYRQAPGKEREFVAAINRSGGSTYYADSVKGRFTISRDNAKNTVYLQMNSLKPEDTAVYYCNAGYRRSSHFREHDYWGQGTQVTVSS | high polyreactivity
43 | QVQLVESGGGLVQAGGSLRLSCAASGYTFGRYAMGWYSQAPGKERELVAAITKSGGRTSYADSVKGRFTISRDNEKNTVYLQMTSLKPEDTAVYYCNKVRFQPYWVVYATGDYWGQGTQVTVSS | high polyreactivity
